Laboratory results as given in patent US20260139026A1 (Memorial Sloan Kettering, published 2026).

How the values were obtained:
[1] = biological target: T1, recombinant HLA-A*03:01 (human); assay: differential scanning fluorimetry of peptide/HLA-A*03:01, two technical replicates
T1 construct: MHC class I molecule used in differential scanning fluorimetry and crystallography. 'Recombinant' is printed only for the crystal structures; also called HLA-A*03:01 molecule
Text: Experiments included two technical replicates for each group. […] It measured the change in fluorescent signal of a dye that binds preferentially to hydrophobic resides that are exposed as an unstable protein unfolds.

[2] = biological target: P9 peptide … pulsed on HLA-A*03:01 cells (human, UniProt A*03:01); assay: cell-based or functional assay
[3] = biological target: P6 peptide … pulsed on HLA-A*03:01 cells (human, UniProt A*03:01); assay: cell-based or functional assay
[4] = biological target: P4 peptide … pulsed on HLA-A*03:01 cells (human, UniProt A*03:01); assay: cell-based or functional assay
[5] = biological target: P8 peptide … pulsed on HLA-A*03:01 cells (human, UniProt A*03:01); assay: cell-based or functional assay
[6] = biological target: P7 peptide … pulsed on HLA-A*03:01 cells (human, UniProt A*03:01); assay: cell-based or functional assay
[7] = biological target: P2 peptide … pulsed on HLA-A*03:01 cells (human, UniProt A*03:01); assay: cell-based or functional assay
[8] = biological target: P5 peptide … pulsed on HLA-A*03:01 cells (human, UniProt A*03:01); assay: cell-based or functional assay
[9] = biological target: P3 peptide … pulsed on HLA-A*03:01 cells (human, UniProt A*03:01); assay: cell-based or functional assay

| loss in function against the unmodified mutated 9-mer [2] [% loss in function] | loss in function against the unmodified mutated 9-mer [3] [% loss in function] | loss in function against the unmodified mutated 9-mer [4] [% loss in function] | loss in function against the unmodified mutated 9-mer [5] [% loss in function] | loss in function against the unmodified mutated 9-mer [6] [% loss in function] | loss in function against the unmodified mutated 9-mer [7] [% loss in function] | loss in function against the unmodified mutated 9-mer [8] [% loss in function] | loss in function against the unmodified mutated 9-mer [9] [% loss in function] | Binder | melting temperature [1] [degrees] |
| --- | --- | --- | --- | --- | --- | --- | --- | --- | --- |
| – | – | – | – | – | – | – | – | AHHGGWTTK (also called WT peptide) [wildtype PIK3CA minimal peptide AHHGGWTTK] | 36 |
| > 50 | > 50 | > 50 | > 50 | > 50 | > 50 | > 50 | > 50 | 1022T8 TCR (TCR, V domains shown) V domain 1: GDSVTQMEGPVTLSEEAFLTINCTYTATGYPSLFWYVQYPGEGLQLLLKATKADDKGSNKGFEATYRKETTSFHLEKGSVQVSDSAVYFCALTVGGSYIPTFGRGTSLIVHP V domain 2: DTEVTQTPKHLVMGMTNKKSLKCEQHMGHRAMYWYKQKAKKPPELMFVYSYEKLSINESVPSRFSPECPNSSLLNLHLHALQPEDSALYLCASSQGGQGWRETQYFGPGTRLLVLE | – |
